Target: transferrin receptor (TfR) (human (endogenous in Caco-2)) (UniProt P02786)
Sequence (P02786 whole entry): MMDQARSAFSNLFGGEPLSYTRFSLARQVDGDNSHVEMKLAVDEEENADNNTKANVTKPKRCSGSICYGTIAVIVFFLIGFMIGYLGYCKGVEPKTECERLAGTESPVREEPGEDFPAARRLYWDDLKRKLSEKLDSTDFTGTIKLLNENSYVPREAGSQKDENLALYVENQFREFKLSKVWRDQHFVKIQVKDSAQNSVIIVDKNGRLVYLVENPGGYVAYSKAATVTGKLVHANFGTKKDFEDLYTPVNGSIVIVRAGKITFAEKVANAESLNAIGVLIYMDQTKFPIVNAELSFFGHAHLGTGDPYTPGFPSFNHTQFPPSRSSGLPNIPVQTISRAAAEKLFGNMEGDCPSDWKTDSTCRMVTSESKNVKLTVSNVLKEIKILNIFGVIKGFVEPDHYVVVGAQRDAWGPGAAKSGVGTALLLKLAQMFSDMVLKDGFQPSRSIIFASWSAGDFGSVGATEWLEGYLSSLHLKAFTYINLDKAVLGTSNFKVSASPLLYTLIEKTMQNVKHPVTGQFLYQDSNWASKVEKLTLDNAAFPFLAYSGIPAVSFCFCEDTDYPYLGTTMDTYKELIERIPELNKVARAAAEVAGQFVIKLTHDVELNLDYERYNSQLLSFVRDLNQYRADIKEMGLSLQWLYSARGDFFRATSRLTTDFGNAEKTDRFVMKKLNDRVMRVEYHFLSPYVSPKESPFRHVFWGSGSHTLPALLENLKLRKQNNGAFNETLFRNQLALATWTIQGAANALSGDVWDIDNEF

rFIX-Tf/Dithi, sequence (P02787 whole entry, looked up): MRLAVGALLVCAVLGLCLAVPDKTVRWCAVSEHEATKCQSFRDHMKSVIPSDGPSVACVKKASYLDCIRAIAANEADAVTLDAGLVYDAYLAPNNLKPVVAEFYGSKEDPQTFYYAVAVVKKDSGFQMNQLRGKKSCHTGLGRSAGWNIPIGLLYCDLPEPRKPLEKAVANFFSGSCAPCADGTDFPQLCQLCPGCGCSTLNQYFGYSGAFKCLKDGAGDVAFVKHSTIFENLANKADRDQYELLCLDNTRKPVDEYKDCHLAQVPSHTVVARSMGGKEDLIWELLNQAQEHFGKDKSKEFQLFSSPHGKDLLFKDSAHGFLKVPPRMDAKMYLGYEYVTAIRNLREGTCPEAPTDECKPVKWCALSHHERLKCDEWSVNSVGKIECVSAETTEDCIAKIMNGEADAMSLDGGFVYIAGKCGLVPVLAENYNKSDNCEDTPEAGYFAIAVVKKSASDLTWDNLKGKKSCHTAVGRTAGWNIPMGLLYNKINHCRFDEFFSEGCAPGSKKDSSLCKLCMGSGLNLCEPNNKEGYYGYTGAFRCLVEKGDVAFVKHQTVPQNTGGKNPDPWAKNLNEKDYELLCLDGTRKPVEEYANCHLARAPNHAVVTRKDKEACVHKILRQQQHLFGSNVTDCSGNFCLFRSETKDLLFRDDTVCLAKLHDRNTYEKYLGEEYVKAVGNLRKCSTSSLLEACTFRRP
rFIX-Tf/Dithi, sequence (P00740 whole entry, looked up): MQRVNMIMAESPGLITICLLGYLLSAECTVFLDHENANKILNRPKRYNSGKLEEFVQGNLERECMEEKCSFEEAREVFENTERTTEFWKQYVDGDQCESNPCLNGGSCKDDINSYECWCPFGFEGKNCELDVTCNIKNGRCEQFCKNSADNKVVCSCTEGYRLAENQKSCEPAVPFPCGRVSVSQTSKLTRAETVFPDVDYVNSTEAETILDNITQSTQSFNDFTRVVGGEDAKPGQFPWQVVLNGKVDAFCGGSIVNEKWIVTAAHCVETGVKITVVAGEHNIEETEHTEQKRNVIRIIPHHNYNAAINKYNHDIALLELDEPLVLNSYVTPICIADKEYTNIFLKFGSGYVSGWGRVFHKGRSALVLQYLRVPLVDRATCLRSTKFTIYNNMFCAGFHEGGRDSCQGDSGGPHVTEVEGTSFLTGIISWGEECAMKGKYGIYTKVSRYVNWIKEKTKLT

specific (total minus nonspecific with 100-fold excess Tf) apical-to-basolateral transcytosis across Caco-2 monolayers, about 100 mIU/mL apical, 2, 4 and 6 h; protein transport rate at 6 h [%]	specific apical-to-basolateral transcytosis across Caco-2 monolayers at 6 h, fold over BeneFIX [fold]	specific apical-to-basolateral transcytosis across Caco-2 monolayers, fold over FIX-Tf (LE dipeptide linker) [fold]	Substance
0.024			BeneFIX^®, a marketed coagulation factor IX (recombinant) product (enzyme)
	4.4	1.5	rFIX-Tf/Dithi (from UniProt P00740 47-461; P02787 20-698)
